Like-named read-outs stand apart in the source and are kept apart here.
Legend:
[1] = molecular target: T1, BACE1 in primary mouse cortical neurons (mouse, UniProt P56818 46-501); test: cell-based or functional assay
murine BACE1 ECD [2] = test: cell-based or functional assay
human BACE1 ECD [3] = test: cell-based or functional assay
[4] = molecular target: T2, human BACE1 (R&D Systems) (human, UniProt P56817); test: SPR (Biacore)
T2 construct: recombinant, commercial (R&D Systems)

murine BACE1 ECD [5] = molecular target: T3, murine BACE1 ECD; test: Octet, pH 7.5;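 note: antibodies captured on anti-human capture biosensor tips, dissociation followed in PBS with BSA buffer, kinetics fitted with a one-to-one binding model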
T3 construct: analyte of the Octet assay (200 nM) and enzyme of the first short substrate assay

human BACE1 ECD [6] = molecular target: T4, human BACE1 ECD; test: Octet, pH 7.5;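 note: antibodies captured on anti-human capture biosensor tips, dissociation followed in PBS with BSA buffer, kinetics fitted with a one-to-one binding model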
T4 construct: analyte of the Octet assay (200 nM) and enzyme of the first short substrate assay; also called human BACE1 extracellular domain

[7] = molecular target: BACE1 (HTRF long substrate and FRET short substrate assays of Example 9D); test: cell-based or functional assay
murine BACE1 ECD [8] = molecular target: T3, murine BACE1 ECD; test: Octet, pH 5.0
human BACE1 ECD [9] = molecular target: T4, human BACE1 ECD; test: Octet, pH 5.0
murine BACE1 ECD [10] = molecular target: T3, murine BACE1 ECD; test: Octet, pH 7.5; remark: listed apart in the source;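 note: antibodies captured on anti-human capture biosensor tips, dissociation followed in PBS with BSA buffer, kinetics fitted with a one-to-one binding model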
human BACE1 ECD [11] = molecular target: T4, human BACE1 ECD; test: Octet, pH 7.5; remark: listed apart in the source;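 note: antibodies captured on anti-human capture biosensor tips, dissociation followed in PBS with BSA buffer, kinetics fitted with a one-to-one binding model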
murine BACE1 ECD [12] = molecular target: T3, murine BACE1 ECD; test: Octet, pH 5.0; remark: listed apart in the source
human BACE1 ECD [13] = molecular target: T4, human BACE1 ECD; test: Octet, pH 5.0; remark: listed apart in the source
[14] = molecular target: T1, BACE1 in primary mouse cortical neurons; test: cell-based or functional assay; remark: listed apart in the source
[15] = molecular target: T5, human TfR extracellular domain with N-terminal His tag (human, UniProt P02786 89-760); test: SPR, IgG;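 note: His-tagged TfR captured via immobilized anti-His antibody on a CM5 chip, antibody injected in 3-fold dilution series by single cycle kinetics, 1:1 Langmuir or steady-state fit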
T5 construct: Biotinylated in some assays; also called huTfR; HuTfR
T5 sequence (P02786 89-760 G142S): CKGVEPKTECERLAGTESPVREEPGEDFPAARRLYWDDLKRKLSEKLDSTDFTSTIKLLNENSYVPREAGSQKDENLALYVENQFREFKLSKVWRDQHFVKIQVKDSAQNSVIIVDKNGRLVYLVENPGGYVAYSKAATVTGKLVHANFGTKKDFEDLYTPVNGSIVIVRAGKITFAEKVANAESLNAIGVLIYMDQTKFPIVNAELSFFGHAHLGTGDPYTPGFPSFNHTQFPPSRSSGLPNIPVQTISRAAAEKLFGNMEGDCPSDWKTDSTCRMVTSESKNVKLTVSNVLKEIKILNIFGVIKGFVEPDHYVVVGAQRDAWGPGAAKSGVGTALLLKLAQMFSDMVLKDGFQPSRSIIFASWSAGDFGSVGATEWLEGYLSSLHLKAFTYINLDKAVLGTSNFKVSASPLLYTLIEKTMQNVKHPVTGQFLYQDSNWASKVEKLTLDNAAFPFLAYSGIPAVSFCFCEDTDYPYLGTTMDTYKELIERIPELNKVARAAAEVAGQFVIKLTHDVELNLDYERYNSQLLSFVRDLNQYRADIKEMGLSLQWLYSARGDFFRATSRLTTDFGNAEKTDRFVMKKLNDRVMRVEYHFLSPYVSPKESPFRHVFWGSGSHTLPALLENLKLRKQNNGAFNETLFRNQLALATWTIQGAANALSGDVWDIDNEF

T1 sequence (P56818 46-501): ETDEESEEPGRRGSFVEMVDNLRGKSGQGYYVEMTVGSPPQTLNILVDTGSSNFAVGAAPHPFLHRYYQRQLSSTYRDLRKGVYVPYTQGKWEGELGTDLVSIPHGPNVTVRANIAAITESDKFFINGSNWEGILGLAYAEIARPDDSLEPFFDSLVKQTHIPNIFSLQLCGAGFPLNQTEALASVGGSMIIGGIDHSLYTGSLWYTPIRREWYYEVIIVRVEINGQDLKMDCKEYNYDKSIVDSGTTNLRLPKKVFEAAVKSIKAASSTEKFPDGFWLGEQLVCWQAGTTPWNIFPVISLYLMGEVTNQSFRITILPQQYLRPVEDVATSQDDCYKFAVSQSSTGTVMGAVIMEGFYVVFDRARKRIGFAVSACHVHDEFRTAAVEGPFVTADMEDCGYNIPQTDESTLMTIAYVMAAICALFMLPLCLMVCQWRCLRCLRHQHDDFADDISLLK
T4 sequence (single chain, as listed by the source limits assumed): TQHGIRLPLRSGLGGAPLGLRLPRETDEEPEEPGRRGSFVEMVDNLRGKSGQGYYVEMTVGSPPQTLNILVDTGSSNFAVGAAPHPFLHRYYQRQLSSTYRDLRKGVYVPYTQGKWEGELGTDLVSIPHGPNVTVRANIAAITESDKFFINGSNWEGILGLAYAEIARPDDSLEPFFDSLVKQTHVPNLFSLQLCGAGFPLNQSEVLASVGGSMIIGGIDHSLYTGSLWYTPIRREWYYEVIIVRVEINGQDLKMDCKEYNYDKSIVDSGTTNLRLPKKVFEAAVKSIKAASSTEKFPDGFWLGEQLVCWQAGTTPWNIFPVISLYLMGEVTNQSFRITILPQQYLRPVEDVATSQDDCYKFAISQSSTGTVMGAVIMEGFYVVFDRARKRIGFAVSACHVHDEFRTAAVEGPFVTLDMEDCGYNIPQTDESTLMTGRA
T2 sequence (P56817 22-457 limits assumed): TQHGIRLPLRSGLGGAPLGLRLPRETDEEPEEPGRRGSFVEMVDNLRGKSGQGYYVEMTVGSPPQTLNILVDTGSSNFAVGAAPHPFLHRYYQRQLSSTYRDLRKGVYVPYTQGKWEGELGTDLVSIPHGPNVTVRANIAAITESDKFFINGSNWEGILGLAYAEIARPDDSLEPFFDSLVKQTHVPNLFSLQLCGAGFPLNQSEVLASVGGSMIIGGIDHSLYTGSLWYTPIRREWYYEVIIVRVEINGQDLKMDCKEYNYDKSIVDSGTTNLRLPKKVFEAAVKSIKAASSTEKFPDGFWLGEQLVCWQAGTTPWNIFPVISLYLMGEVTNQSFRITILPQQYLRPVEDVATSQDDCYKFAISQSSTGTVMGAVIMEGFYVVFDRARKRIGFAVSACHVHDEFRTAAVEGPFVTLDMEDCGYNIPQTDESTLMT
T3 sequence (single chain, as listed by the source limits assumed): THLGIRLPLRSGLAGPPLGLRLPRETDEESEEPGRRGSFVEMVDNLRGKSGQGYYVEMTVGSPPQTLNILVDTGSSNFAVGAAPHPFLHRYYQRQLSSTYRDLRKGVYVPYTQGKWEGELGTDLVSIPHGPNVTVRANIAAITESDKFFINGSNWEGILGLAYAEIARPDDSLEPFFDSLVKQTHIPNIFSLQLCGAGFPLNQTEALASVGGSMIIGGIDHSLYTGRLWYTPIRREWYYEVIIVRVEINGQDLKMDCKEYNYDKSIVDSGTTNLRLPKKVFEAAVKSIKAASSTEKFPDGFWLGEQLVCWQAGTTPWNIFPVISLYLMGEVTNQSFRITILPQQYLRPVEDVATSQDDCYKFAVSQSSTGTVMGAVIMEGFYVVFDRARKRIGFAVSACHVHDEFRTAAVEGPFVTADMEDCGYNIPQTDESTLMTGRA

| Binder | IC50, Abeta x-40 in mouse cortical neurons [1] [nM] | maximal % inhibition of Abeta x-40 [1] [%] | % inhibition of BACE1 activity, short FRET substrate (murine BACE1 ECD [2]) [%] | % inhibition of BACE1 activity, short FRET substrate (human BACE1 ECD [3]) [%] | Kd [4] [nM] | Kd (murine BACE1 ECD [5]) [nM] | Kd (human BACE1 ECD [6]) [nM] | EC50, HTRF long substrate [7] [nM] | Kd (murine BACE1 ECD [8]) [nM] | Kd (human BACE1 ECD [9]) [nM] | Kd (murine BACE1 ECD [10]) [nM] | Kd (human BACE1 ECD [11]) [nM] | Kd (murine BACE1 ECD [12]) [nM] | Kd (human BACE1 ECD [13]) [nM] | IC50, Abeta x-40 in mouse cortical neurons [14] [nM] | maximal % inhibition of Abeta x-40 [14] [%] | EC50, FRET short substrate [7] [nM] | Kd [15] [nM] |
| --- | --- | --- | --- | --- | --- | --- | --- | --- | --- | --- | --- | --- | --- | --- | --- | --- | --- | --- |
| 5539 (antibody, V domains shown, anti-BACE1 IgG) VH: not shown VL: DIQMTQSPSSLSASVGDRVTITCRASQSISSYLNWYQQKPGKAPKLLIYAASSLQSGVPSRFSGSGSGTDFTLTISSLQPEDFATYYCQQPLSHPRTFGGGTKVEIK | 17.6 | 45 | 23 | 42 | 30.5 | 110 | 79 | 0.694 | – | – | – | – | – | – | – | – | – | – |
| 5536 (antibody, V domains shown, anti-BACE1 IgG) VH: QVQLVQSGAEVKKPGSSVKVSCKASGGTFSSYAISWVRQAPGQGLEWMGSIIPIFGTANYAQKFQGRVTITADESTSTAYMELSSLRSEDTAVYYCARSGGTKYGMLDVWGQGTMVTVSS VL: EIVMTQSPATLSVSPGERATLSCRASQSVGSNLAWYQQKPGQAPRLLIYGASTRATGIPARFSGSGSGTEFTLTISSLQSEDFAVYYCQQSYLWPPRTFGGGTKVEIK | 42.4 | 84 | 30 | 32 | – | 22 | 15 | 0.578 | 6.8 | 17 | – | – | – | – | – | – | – | – |
| 5932 (antibody, V domains shown, anti-BACE1 IgG) VH: QLQLQESGPGLVKPSETLSLTCTVSGGSISRGSYYWGWIRQPPGKGLEWIGMIYYSGSTWYNPSLKSRVTISVDTSKNQFSLKLSSVTAADTAVYYCARVGHGISYFDLWGRGTLVTVSS VL: EIVLTQSPATLSLSPGERATLSCRASQSVSSYLAWYQQKPGQAPRLLIYDASKRATGIPARFSGSGSGTDFTLTISSLEPEDFAVYYCQQVYTWPPRTFGGGTKVEIK | – | – | – | – | – | – | – | – | – | – | < 0.3 | 0.31 | < 0.3 | < 0.23 | 6.26 | 57 | – | – |
| 5982 (antibody, V domains shown, anti-BACE1 IgG) VH: QLQLQESGPGLVKPSETLSLTCTVSGGSISSSSYYWGWIRQPPGKGLEWIGNIYYSGSTYYNPSLKSRVTISVDTSKNQFSLKLSSVTAADTAVYYCARLGHGYSYFDLWGRGTLVTVSS VL: EIVLTQSPATLSLSPGERATLSCRASQSVSSYLAWFQQKPGQAPRLLIYDASNRATGIPARFSGSGSGTDFTLTISSLEPEDFAVYYCQQVYVWPPRTFGGGTKVEIK | – | – | – | – | – | – | – | – | – | – | 2 | 2.9 | 2.3 | 2.3 | 27.3 | 71 | – | – |
| 5984 (antibody, V domains shown, anti-BACE1 IgG) VH: QLQLQESGPGLVKPSETLSLTCTVSGGSISSSSYYWGWIRQPPGKGLEWIGNIYYSGSTYYNPSLKGRVTISVDTSKNQFSLKLSSVTAADTAVYYCARLGHGYNYFDLWGRGTLVTVSS VL: EIVLTQSPATLSLSPGERATLSCRASQSVSSYLAWFQQKPGQAPRLLIYDASNRATGIPARFSGSGSGTDFTLTISSLEPEDFAVYYCQQVYVWPPRTFGGGTKVEIK | – | – | – | – | – | – | – | – | – | – | 0.36 | 0.43 | 0.37 | 0.34 | 22.6 | 70 | – | – |
| 5986 (antibody, V domains shown, anti-BACE1 IgG) VH: QLQLQESGPGLVKPSETLSLTCTVSGGSISSSSYYWGWIRQPPGKGLEWIGQIYYSGSTFYNPSLKSRVTISVDTSKNQFSLKLSSVTAADTAVYYCARLGHGYSYFDLWGRGTLVTVSS VL: EIVLTQSPATLSLSPGERATLSCRASQSVSSYLAWFQQKPGQAPRLLIYDASNRATGIPARFSGSGSGTDFTLTISSLEPEDFAVYYCQQVYVWPPRTFGGGTKVEIK | – | – | – | – | – | – | – | – | – | – | 0.54 | 0.78 | < 0.27 | < 0.24 | 5.42 | 67 | – | – |
| 5747 (antibody, V domains shown, anti-BACE1 IgG) VH: QLQLQESGPGLVKPSETLSLTCTVSGGSISSSSYYWGWIRQPPGKGLEWIGNIYYSGSTYYNPSLKSRVTISVDTSKNQFSLKLSSVTAADTAVYYCARLGHGYSYFDLWGRGTLVTVSS VL: EIVLTQSPATLSLSPGERATLSCRASQSVSSYLAWYQQKPGQAPRLLIYDASNRATGIPARFSGSGSGTDFTLTISSLEPEDFAVYYCQQVYLWPPRTFGGGTKVEIK | 25.6 | 74 | – | – | – | 2.2 | 3.3 | – | 3.1 | 3 | – | – | – | – | – | – | – | – |
| 5933 (antibody, V domains shown, anti-BACE1 IgG) VH: QLQLQESGPGLVKPSETLSLTCTVSGGSISRGSYYWGWIRQPPGKGLEWIGMIYYSGSTWYNPSLKSRVTISVDTSKNQFSLKLSSVTAADTAVYYCARVGHGVSYFDLWGRGTLVTVSS VL: EIVLTQSPATLSLSPGERATLSCRASQSVSSYLAWYQQKPGQAPRLLIYGASKRATGIPARFSGSGSGTDFTLTISSLEPEDFAVYYCQQVYTWPPRTFGGGTKVEIK | – | – | – | – | – | – | – | – | – | – | < 0.24 | 0.32 | < 0.24 | < 0.2 | 3.6 | 67 | – | – |
| 5985 (antibody, V domains shown, anti-BACE1 IgG) VH: QLQLQESGPGLVKPSETLSLTCTVSGGSISSSSYYWGWIRQPPGKGLEWIGNIYYSGSTYYNPSLKSRVTISVDTSKNQFSLKLSSVTAADTAVYYCARLGHGYNYFDLWGRGTLVTVSS VL: EIVLTQSPATLSLSPGERATLSCRASQSVSSYLAWFQQKPGQAPRLLIYDASNRATGIPARFSGSGSGTDFTLTISSLEPEDFAVYYCQQVYVWPPRTFGGGTKVEIK | – | – | – | – | – | – | – | – | – | – | 0.65 | 0.87 | 0.81 | 0.68 | – | 73 | – | – |
| 5931 (antibody, V domains shown, anti-BACE1 IgG) VH: QLQLQESGPGLVKPSETLSLTCTVSGGSISWSSYYWSWIRQPPGKGLEWIGSIYRSGRTYYNPSLKGRVTISVDTSKNQFSLKLSSVTAADTAVYYCARVGHGINYFDLWGRGTLVTVSS VL: EIVLTQSPATLSLSPGERATLSCRASQSVSSYLAWYQQKPGQAPRLLIYDASKRATGIPARFSGSGSGTDFTLTISSLEPEDFAVYYCQQVYTWPPRTFGGGTKVEIK | – | – | – | – | – | – | – | – | – | – | < 0.23 | < 0.22 | < 0.28 | < 0.22 | 0.91 | 69 | – | – |
| 5878 (antibody, V domains shown, anti-BACE1 IgG) VH: EVQLLESGGGLVQPGGSLRLSCAASGFTFSSYAMSWVRQAPGKGLEWVSAISGSGISTPYADSVKGRFTISRDNSKNTLYLQMNSLRAEDTAVYYCAKGAGHGSYVKGWFDPWGQGTLVTVSS VL: EIVLTQSPATLSLSPGERATLSCRASQSVSSYLAWYQQKPGQAPRLLIYDASNRATGIPARFSGSGSGTDFTLTISSLEPEDFAVYYCQQSVNFPFTFGGGTKVEIK | – | – | 98 | 99 | 36 | 2.7 | 2.5 | 164 | 14 | 11 | – | – | – | – | – | – | 24.3 | – |
| 5880 (antibody, V domains shown, anti-BACE1 IgG) VH: EVQLLESGGGLVQPGGSLRLSCAASGFTFGSYAMTWVRQAPGKGLEWVSAISGSGISTPYADSVKGRFTISRDNSKNTLYLQMNSLRAEDTAVYYCAKGAGHGSYVKGWFDPWGQGTLVTVSS VL: EIVLTQSPATLSLSPGERATLSCRASQSVSSYLAWYQQKPGQAPRLLIYDASNRATGIPARFSGSGSGTDFTLTISSLEPEDFAVYYCQQSVNFPFTFGGGTKVEIK | – | – | 97 | 99 | 65.5 | 1.2 | 1 | 171 | 6.1 | 4.5 | – | – | – | – | – | – | 7.88 | – |
| 5874 (antibody, V domains shown, anti-BACE1 IgG) VH: EVQLLESGGGLVQPGGSLRLSCAASGFTFGSYAMSWVRQAPGKGLEWVSATSGSGGSTYYADSVKGRFTISRDNSKNTLYLQMDSLRAEDTAVYYCAKGGSQWLYAPGSWFDPWGQGTLVTVSS VL: EIVLTQSPATLSLSPGERATLSCRASQSVSSYLAWYQQKPGQAPRLLIYDASNRATGIPARFSGSGSGTDFTLTISSLEPEDFAVYYCVQRSNFPWTFGGGTKVEIK | – | – | 33 | 37 | 1.3 | 22 | 33 | 3.97 | 200 | – | – | – | – | – | – | – | 0.798 | – |
| hu7A4.v5 (antibody, V domains shown, IgG) VH: EVQLVQSGAEVKKPGASVKVSCKASGYTFTDYAMHWVRQAPGQGLEWMGGISTYFGRTNYNQKFKGRVTMTRDTSISTAYMELSRLRSDDTAVYYCARGLSGNYVMDYWGQGTTVTVSS VL: DIVMTQSPDSLAVSLGERATINCRASESVDSYGNSFMHWYQQKPGQPPKLLIYRASNLESGIPDRFSGSGSGTDFTLTISSLQAEDVAVYYCQQSNEGPPTFGQGTKLEIK | – | – | – | – | – | – | – | – | – | – | – | – | – | – | – | – | – | 0.364 |
